{"source": "paper doi:10.1101/2023.02.03.526835", "about": "(bioRxiv, 2023)", "proteins": {"B1": {"name": "Lcb2 (enzyme, S. cerevisiae)", "chain": "MSTPANYTRVPLCEPEELPDDIQKENEYGTLDSPGHLYQVKSRHGKPLPEPVVDTPPYYISLLTYLNYLILIILGHVHDFLGMTFQKNKHLDLLEHDGLAPWFSNFESFYVRRIKMRIDDCFSRPTTGVPGRFIRCIDRISHNINEYFTYSGAVYPCMNLSSYNYLGFAQSKGQCTDAALESVDKYSIQSGGPRAQIGTTDLHIKAEKLVARFIGKEDALVFSMGYGTNANLFNAFLDKKCLVISDELNHTSIRTGVRLSGAAVRTFKHGDMVGLEKLIREQIVLGQPKTNRPWKKILICAEGLFSMEGTLCNLPKLVELKKKYKCYLFIDEAHSIGAMGPTGRGVCEIFGVDPKDVDILMGTFTKSFGAAGGYIAADQWIIDRLRLDLTTVSYSESMPAPVLAQTISSLQTISGEICPGQGTERLQRIAFNSRYLRLALQRLGFIVYGVADSPVIPLLLYCPSKMPAFSRMMLQRRIAVVVVAYPATPLIESRVRFCMSASLTKEDIDYLLRHVSEVGDKLNLKSNSGKSSYDGKRQRWDIEEVIRRTPEDCKDDKYFVN", "modifications": "pyridoxal 5'-phosphate (PLP) as internal aldimine with K366"}}, "molecular_target": "the molecule itself", "assay": "cryo-EM structure"}
{"protein": "B1", "values": [{"measurement": "binding result", "result": "binds"}]}
